Data from publication PMC3795957 (Nature biotechnology, 2013).
Where no end group is shown, it is not given here.

Target: T1, wild-type (WT Asp) peptide GEKKGNYVVTDH (also: biotin (site not given here))
T1 chain: GEKKGNYVVTDH
Assay: SPR

B1: humanized version of the 1i8i Fab (Parent) (Fab, V domains shown)
VH: EVQLVESGGGLVQPGGSLRLSCVTSGFTFRKFGMSWVRQAPGKGLEWVASISTGGYNTYYSDSVKGRFTISRDNSKNTLYLQMNSLRAEDTAVYYCTRGYSSTSYAMDYWGQGTLVTVSS
VL: DIVLTQSPATLSLSPGERATLSCMTSTDIDDDMNWYQQKPGQAPRLLISEGNTLRPGVPARFSGSGSGTDFTLTISSLEPEDFAVYYCLQSFNVPLTFGQGTKVEIK
Question: B1 was tested. Which kon did it give?
Answer: 338000 M⁻¹ s⁻¹
